Data as given in US20200361992A1 (PROTAGONIST THERAPEUTICS, published 2020).
Values belong to the binder of their own block, whether it stands above or below them. Starred links: 1 amine or outer side, 2 acyl side, 3 side chain; linkers in the order of their positions; H or OH if unused. Positions of bridges follow the written chain, without caps; N, C: chain ends. Non-standard residues stand in square brackets, D forms with d. Groups on a side chain read outwards from the residue. *: point of attachment. PEG12 = NCCOCCOCCOCCOCCOCCOCCOCCOCCOCCOCCOCCOCCC(=O)O; Phe(4-tBu) = CC(C)(C)c1ccc(C[C@H](N)C(=O)O)cc1; Phe(3,4-F2) = N[C@@H](Cc1ccc(F)c(F)c1)C(=O)O; Dip = N[C@H](C(=O)O)C(c1ccccc1)c1ccccc1; γGlu = O=C(O)[C@H](CCC(=O)[*:2])N[*:1]; 2Nal = N[C@@H](Cc1ccc2ccccc2c1)C(=O)O; AEF = NCCOc1ccc(C[C@H](N)C(=O)O)cc1; Palmitoyl = CCCCCCCCCCCCCCCC(=O)*; β3hF = N[C@H](CC(=O)O)Cc1ccccc1; Isovaleryl = CC(C)CC(=O)*; Npc = nipecotic acid; βAla = NCCC(=O)O

Experiments:
[1] = biological target: T1, human ferroportin (SLC40A1) fused with GFP, stably expressed in HEK293 cells (human, UniProt Q9NP59 1-571); experiment: cell-based or functional assay
T1 sequence (looked up): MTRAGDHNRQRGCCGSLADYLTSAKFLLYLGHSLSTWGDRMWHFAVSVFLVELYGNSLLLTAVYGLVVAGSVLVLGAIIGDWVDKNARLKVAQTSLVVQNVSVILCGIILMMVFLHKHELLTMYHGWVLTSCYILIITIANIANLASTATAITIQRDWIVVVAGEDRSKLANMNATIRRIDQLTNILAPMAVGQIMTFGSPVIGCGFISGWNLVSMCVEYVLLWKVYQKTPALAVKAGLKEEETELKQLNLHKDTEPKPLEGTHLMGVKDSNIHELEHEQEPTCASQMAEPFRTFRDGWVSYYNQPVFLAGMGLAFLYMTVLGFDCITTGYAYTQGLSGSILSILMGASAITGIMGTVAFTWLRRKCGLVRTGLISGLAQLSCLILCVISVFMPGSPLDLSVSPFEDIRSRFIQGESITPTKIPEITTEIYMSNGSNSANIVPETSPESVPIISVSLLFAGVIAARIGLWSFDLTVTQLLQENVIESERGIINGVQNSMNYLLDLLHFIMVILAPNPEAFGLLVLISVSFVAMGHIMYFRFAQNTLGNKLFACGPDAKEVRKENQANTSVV

[2] = biological target: T2, human ferroportin (SLC40A1) fused in frame with the GFP protein, stably expressed in HEK293 cells (human, UniProt Q9NP59 1-571); experiment: cell-based or functional assay
T2 sequence (looked up): T1 sequence (looked up)

Binder: DTHXPCIKFKXC (Isovaleric acid-DTH-[Dpa]-PCI-[(D)Lys]-F-[Lys(Peg11-Palm)]-[Dab]-C-NH2) [Compd ID 137]
FPN IC50 [1]: 23 nM

B1: Compd ID 122 (peptide)
peptide: DTHXPCIKXKKC
modifications: Isovaleric acid-DTH-[Dpa]-PCI-[(D)Lys]-[b-hPhe]-[Lys(Peg11-Palm)]-[(D)Lys]-C-NH2
FPN IC50 [1]: 5 nM

B2: Compd ID 202 (peptide)
peptide: Isovaleryl-DTHFPCIK([γGlu-Palmitoyl])FEPRSKC-NH2
modifications: disulfide 6-15
SMILES: CCCCCCCCCCCCCCCC(=O)N[C@@H](CCC(=O)NCCCC[C@@H]1NC(=O)[C@H]([C@@H](C)CC)NC(=O)[C@@H](NC(=O)[C@@H]2CCCN2C(=O)[C@H](Cc2ccccc2)NC(=O)[C@H](Cc2c[nH]cn2)NC(=O)[C@@H](NC(=O)[C@H](CC(=O)O)NC(=O)CC(C)C)[C@@H](C)O)CSSC[C@@H](C(N)=O)NC(=O)[C@H](CCCCN)NC(=O)[C@H](CO)NC(=O)[C@H](CCCNC(=N)N)NC(=O)[C@@H]2CCCN2C(=O)[C@H](CCC(=O)O)NC(=O)[C@H](Cc2ccccc2)NC1=O)C(=O)O
FPN IC50 [2]: 11 nM

B3: Compd ID 120 (peptide)
peptide: DTHXPCIKFKKC
modifications: Isovaleric acid-DTH-[Phe(4-COOH)-PCI-[(D)Lys]-F-[Lys(Peg11-Palm)]-[(D)Lys]-C-NH2
FPN IC50 [1]: > 1000 nM

Binder: DTHXPCIKFKKC (Isovaleric acid-DTH-[b-hPhe]-PCI-[(D)Lys]-F-[Lys(Peg11-Palm)]-[(D)Lys]-C-NH2) [Compd ID 121]
FPN IC50 [1]: 9 nM

Binder: DTHFPCIKFKPCK (Isovaleric acid-DTHFPCIKF-Lys[PEG11-Palm]-PCK-NH2) [Compd ID 9]
FPN IC50 [1]: 15 nM

Binder: DTHFPCIKFKC (Isovaleric acid-DTHFPCIKF-Lys[PEG11-Palm]-C-NH2) [Compd ID 8]
FPN IC50 [1]: 6 nM

Binder: DTHXPCIKFKXX (Isovaleric acid-DTH-[Dpa]-PCI-[(D)Lys]-F-[Lys(Peg11-Palm)]-[Dap]-[Hcy]-NH2) [Compd ID 143]
FPN IC50 [1]: 18 nM

Binder: DTHFPXIKFKKX (Isovaleric acid-DTHFP-[a-MeCys]-I-[(D)Lys]-F-[Lys(Peg11-Palm)]-K-[a-MeCys]-NH2) [Compd ID 115]
FPN IC50 [1]: 4 nM

Binder: DTHXPCIKFKXC (Isovaleric acid-DTH-[Dpa]-PCI-[(D)Lys]-F-[Lys(Peg11-Palm)]-[b-hLys]-C-NH2) [Compd ID 138]
FPN IC50 [1]: 20.5 nM

Binder: DTHFPXIKFKKC (Isovaleric acid-DTHFP-[a-MeCys]-I-[(D)Lys]-F-[Lys(Peg11-Palm)]-K-C-NH2) [Compd ID 116]
FPN IC50 [1]: 11 nM

Binder: Isovaleryl-DTH[Dip][Npc]CI[dK]FK([PEG12-Palmitoyl])KC-NH2 (disulfide 6-12 (inferred)) [Compd ID 109]
FPN IC50 [1]: 2 nM

Binder: DTHXPCIKFKKX (Isovaleric acid-DTH-[Dpa]-PCI-[(D)Lys]-F-[Lys(Peg11-Palm)]-K-[N-Me-Cys]-NH2) [Compd ID 133]
FPN IC50 [1]: 13.5 nM

Binder: DTHXPCIKFKKC (Isovaleric acid-DTH-[a-MePhe]-PCI-[(D)Lys]-F-[Lys(Peg11-Palm)]-[(D)Lys]-C-NH2) [Compd ID 128]
FPN IC50 [1]: 204 nM

Binder: Isovaleryl-DTH[Dip]PCI[βAla][β3hF]K([PEG12-Palmitoyl])[dK]C-NH2 (disulfide 6-12 (inferred)) [Compd ID 145]
FPN IC50 [1]: 18 nM

Binder: DTHFPCIKFKPC (Isovaleric acid-DTHFPCIKF-Lys[PEG11-Palm]-PC-NH2) [Compd ID 7]
FPN IC50 [1]: 10 nM

Binder: Isovaleryl-DTHF[Npc]CI[dK]FK([PEG12-Palmitoyl])[dK]C-NH2 (disulfide 6-12 (inferred)) [Compd ID 118]
FPN IC50 [1]: 6 nM

B6: Compd ID 142 (peptide)
peptide: DTHXPXIKFKXX
modifications: Isovaleric acid-DTH-[Dpa]-P-[Hcy]-I-[(D)Lys]-F-[Lys(Peg11-Palm)]-[Dap]-[Hcy]-NH2
FPN IC50 [1]: 12 nM

B7: Compd ID 203 (peptide)
peptide: Isovaleryl-DTHFPCIK([γGlu-Palmitoyl])FEPRSC-NH2
modifications: disulfide 6-14
SMILES: CCCCCCCCCCCCCCCC(=O)N[C@@H](CCC(=O)NCCCC[C@@H]1NC(=O)[C@H]([C@@H](C)CC)NC(=O)[C@@H](NC(=O)[C@@H]2CCCN2C(=O)[C@H](Cc2ccccc2)NC(=O)[C@H](Cc2c[nH]cn2)NC(=O)[C@@H](NC(=O)[C@H](CC(=O)O)NC(=O)CC(C)C)[C@@H](C)O)CSSC[C@@H](C(N)=O)NC(=O)[C@H](CO)NC(=O)[C@H](CCCNC(=N)N)NC(=O)[C@@H]2CCCN2C(=O)[C@H](CCC(=O)O)NC(=O)[C@H](Cc2ccccc2)NC1=O)C(=O)O
FPN IC50 [2]: 15 nM

Binder: Isovaleryl-DTH[Dip][Npc]CI[dK][2Nal]K([PEG12-Palmitoyl])KC-NH2 (disulfide 6-12 (inferred)) [Compd ID 112]
FPN IC50 [1]: 4 nM

Binder: Isovaleryl-DTH[Dip][Npc]CI[dK][Phe(4-tBu)]K([PEG12-Palmitoyl])KC-NH2 (disulfide 6-12 (inferred)) [Compd ID 110]
FPN IC50 [1]: 3 nM

Binder: DTHXPCIKFKXX (Isovaleric acid-DTH-[Dpa]-PCI-[(D)Lys]-F-[Lys(Peg11-Palm)]-[Dap]-[Pen]-NH2) [Compd ID 140]
FPN IC50 [1]: 51 nM

Binder: Isovaleryl-DTHFPCI[dK]F[dK]([PEG12-Palmitoyl])[dK]C-NH2 (disulfide 6-12 (inferred)) [Compd ID 107]
FPN IC50 [1]: 60 nM

Binder: DTHXPCIKFKKX (Isovaleric acid-DTH-[Dpa]-PCI-[(D)Lys]-F-[Lys(Peg11-Palm)]-[(D)Lys]-Pen-NH2) [Compd ID 132]
FPN IC50 [1]: 4 nM

Binder: Isovaleryl-DTH[Dip][Npc]CI[dK][Phe(3,4-F2)]K([PEG12-Palmitoyl])KC-NH2 (disulfide 6-12 (inferred)) [Compd ID 127]
FPN IC50 [1]: 3 nM

Other lines, results leading:

FPN IC50 [1]: 22 nM
Binder: DTHXPCIKFKC (Isovaleric acid-DTH-[Dpa]-PCI-[(D)Lys]-F-[Lys(Peg11-Palm)]-C-NH2) [Compd ID 135]

FPN IC50 [1]: 27 nM
Binder: DTHXPCIKFKXC (Isovaleric acid-DTH-[Dpa]-PCI-[(D)Lys]-F-[Lys(Peg11-Palm)]-[Orn]-C-NH2) [Compd ID 136]

FPN IC50 [1]: 2 nM
Binder: Isovaleryl-DTH[Dip][Npc]CI[dK]FK([PEG12-Palmitoyl])[dK]C-NH2 (disulfide 6-12 (inferred)) [Compd ID 117]

FPN IC50 [2]: 14 nM
B4: Compd ID 204 (peptide)
peptide: Isovaleryl-DTHFPCIK([γGlu-Palmitoyl])FEPRC-NH2
modifications: disulfide 6-13
SMILES: CCCCCCCCCCCCCCCC(=O)N[C@@H](CCC(=O)NCCCC[C@@H]1NC(=O)[C@H]([C@@H](C)CC)NC(=O)[C@@H](NC(=O)[C@@H]2CCCN2C(=O)[C@H](Cc2ccccc2)NC(=O)[C@H](Cc2c[nH]cn2)NC(=O)[C@@H](NC(=O)[C@H](CC(=O)O)NC(=O)CC(C)C)[C@@H](C)O)CSSC[C@@H](C(N)=O)NC(=O)[C@H](CCCNC(=N)N)NC(=O)[C@@H]2CCCN2C(=O)[C@H](CCC(=O)O)NC(=O)[C@H](Cc2ccccc2)NC1=O)C(=O)O

FPN IC50 [1]: 14 nM
Binder: DTHXPCIKXKKC (Isovaleric acid-DTH-[Dpa]-PCI-[(D)Lys]-[Dpa]-[Lys(Peg11-Palm)]-[(D)Lys]-C-NH2) [Compd ID 131]

FPN IC50 [1]: 26.5 nM
Binder: DTHXPXIKFKXC (Isovaleric acid-DTH-[Dpa]-P-[Hcy]-I-[(D)Lys]-F-[Lys(Peg11-Palm)]-[Dap]-C-NH2) [Compd ID 141]

FPN IC50 [1]: 32 nM
Binder: Isovaleryl-DTHFPCI[dK]FK([PEG12-Palmitoyl])CK-NH2 (disulfide 6-11 (inferred)) [Compd ID 144]

FPN IC50 [1]: 22.5 nM
B5: Compd ID 134 (peptide)
peptide: DTHXPCIKFKKX
modifications: Isovaleric acid-DTH-[Dpa]-PCI-[(D)Lys]-F-[Lys(Peg11-Palm)]-[(D)Lys]-[N-Me-Cys]-NH2

FPN IC50 [1]: 169 nM
Binder: Isovaleryl-DIH[Dip]PCI[dK]FK([PEG12-Palmitoyl])[dK]C-NH2 (disulfide 6-12 (inferred)) [Compd ID 130]

FPN IC50 [1]: 19.5 nM
Binder: DTHXPCIKFKKC (Isovaleric acid-DTH-[Dpa]-PCI-[(D)Lys]-F-[Lys(Peg11-Palm)]-[(D)Lys]-C-NH2) [Compd ID 139]

FPN IC50 [1]: 3 nM
Binder: DTHFPCIKFKKX (Isovaleric acid-DTH-F-PCI-[(D)Lys]-F-[Lys(Peg11-Palm)]-K-[a-MeCysl-NH2) [Compd ID 114]

FPN IC50 [2]: 9 nM
B8: Compd ID 201 (peptide)
peptide: Isovaleryl-DTHFPCIK([γGlu-Palmitoyl])FEPRSKGC-NH2
modifications: disulfide 6-16
SMILES: CCCCCCCCCCCCCCCC(=O)N[C@@H](CCC(=O)NCCCC[C@@H]1NC(=O)[C@H]([C@@H](C)CC)NC(=O)[C@@H](NC(=O)[C@@H]2CCCN2C(=O)[C@H](Cc2ccccc2)NC(=O)[C@H](Cc2c[nH]cn2)NC(=O)[C@@H](NC(=O)[C@H](CC(=O)O)NC(=O)CC(C)C)[C@@H](C)O)CSSC[C@@H](C(N)=O)NC(=O)CNC(=O)[C@H](CCCCN)NC(=O)[C@H](CO)NC(=O)[C@H](CCCNC(=N)N)NC(=O)[C@@H]2CCCN2C(=O)[C@H](CCC(=O)O)NC(=O)[C@H](Cc2ccccc2)NC1=O)C(=O)O

FPN IC50 [1]: > 3000 nM
Binder: Isovaleryl-DTH[Dip][Npc]CI[dK][AEF]K([PEG12-Palmitoyl])KC-NH2 (disulfide 6-12 (inferred)) [Compd ID 111]
